Assay [1] deals with human neonatal Fc receptor (FcRn) (human) (UniProt P55899). The experiment in a line: BLI; Octet RED384; receptors loaded on HIS1K or SAX biosensors and probed into mAbs in a 2-fold dilution series (20, 10, 5, 2.5, 1.25 μg/mL); pH 6.0; 1:1 model; apparent. (In general: Biolayer interferometry detects binding as a change in optical thickness at a sensor tip.)
Assay [2] addresses rhesus neonatal Fc receptor (FcRn) (rhesus) (UniProt Q6V7J5). The description is as above.
For assay [3], the target named is human Fc gamma receptor IIA, polymorphism H167 (human) (UniProt P12318). Kind of assay: BLI; Octet RED384; receptors loaded on HIS1K or SAX biosensors, probed into mAbs in a dilution series (2000, 100, 50, 25, 12.5 ug/mL [sic]); pH 7.4; 1:1 model; apparent affinity.
Chain of human Fc gamma receptor IIA, polymorphism H167 (human) (P12318 34-217): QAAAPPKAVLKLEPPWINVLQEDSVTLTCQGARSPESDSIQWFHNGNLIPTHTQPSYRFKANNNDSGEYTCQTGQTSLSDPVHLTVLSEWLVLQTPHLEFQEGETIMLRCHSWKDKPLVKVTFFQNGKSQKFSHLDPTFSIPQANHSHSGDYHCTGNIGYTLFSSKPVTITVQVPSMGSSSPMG
Assay [4] deals with human Fc gamma receptor IIIB, polymorphism NA1 (human) (UniProt O75015). The description is as above.
Chain of human Fc gamma receptor IIIB, polymorphism NA1 (human) (O75015 17-233): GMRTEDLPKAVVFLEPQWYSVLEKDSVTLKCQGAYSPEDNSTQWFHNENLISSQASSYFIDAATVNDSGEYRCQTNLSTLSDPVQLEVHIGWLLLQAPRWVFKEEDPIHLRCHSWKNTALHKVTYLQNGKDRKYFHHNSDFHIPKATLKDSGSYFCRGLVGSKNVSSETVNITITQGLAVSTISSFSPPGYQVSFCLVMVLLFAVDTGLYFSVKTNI
The target in assay [5] is human Fc gamma receptor IIB (FcγRIIB) (human) (UniProt P31994). Described as above.
Chain of human Fc gamma receptor IIB (FcγRIIB) (human) (P31994 43-217): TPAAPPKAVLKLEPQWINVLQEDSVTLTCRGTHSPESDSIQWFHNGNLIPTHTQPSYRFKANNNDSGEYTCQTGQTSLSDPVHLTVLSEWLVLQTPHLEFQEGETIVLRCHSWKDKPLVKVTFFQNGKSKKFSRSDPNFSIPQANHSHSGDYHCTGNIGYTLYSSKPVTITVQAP
The target in assay [6] is human Fc gamma receptor I (FcγRI) (human) (UniProt P12314). The description is as above.
Chain of human Fc gamma receptor I (FcγRI) (human) (P12314 16-292): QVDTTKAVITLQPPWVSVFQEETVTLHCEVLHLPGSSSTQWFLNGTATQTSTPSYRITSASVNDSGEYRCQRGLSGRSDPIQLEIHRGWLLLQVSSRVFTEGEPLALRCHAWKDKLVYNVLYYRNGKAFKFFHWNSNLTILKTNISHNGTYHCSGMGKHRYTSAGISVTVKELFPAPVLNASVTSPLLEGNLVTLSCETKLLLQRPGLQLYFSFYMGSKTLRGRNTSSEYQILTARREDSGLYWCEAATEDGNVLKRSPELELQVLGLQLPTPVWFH
Assay [7] has as its target human Fc gamma receptor IIIA, polymorphism F176 (human) (UniProt P08637). Described as above.
For assay [8], the target named is human Fc gamma receptor IIIB, polymorphism NA2 (human) (UniProt O75015). Described as above.
Assay [9] has as its target human Fc gamma receptor IIIA, polymorphism V176 (human) (UniProt P08637). The assay is described as above.
For assay [10], the target named is human Fc gamma receptor IIA, polymorphism R167 (human) (UniProt P12318). Described as above.
Chain of human Fc gamma receptor IIA, polymorphism R167 (human) (P12318 34-217 H167R): as the sequence (P12318 34-217) above, with H134R counted along it
In assay [11] the target is human neonatal Fc receptor (FcRn) (human) (UniProt P55899). The experiment in a line: BLI; Octet RED384; receptors loaded on HIS1K or SAX biosensors and probed into mAbs in a dilution series (2000, 100, 50, 25, 12.5 μg/mL as printed); pH 7.4; 1:1 model; apparent.
The target in assay [12] is rhesus neonatal Fc receptor (FcRn) (rhesus) (UniProt Q6V7J5). The description is as above.

Chain of human Fc gamma receptor IIIA, polymorphism F176 (human) (P08637 17-208): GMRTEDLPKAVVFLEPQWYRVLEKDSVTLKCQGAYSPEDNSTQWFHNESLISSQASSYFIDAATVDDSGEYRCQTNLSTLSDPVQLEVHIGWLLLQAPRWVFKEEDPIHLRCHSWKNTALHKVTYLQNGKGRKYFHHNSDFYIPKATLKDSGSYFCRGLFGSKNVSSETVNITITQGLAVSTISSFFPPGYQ
Chain of human neonatal Fc receptor (FcRn) (human) (P55899 24-297, chain 1 of 2): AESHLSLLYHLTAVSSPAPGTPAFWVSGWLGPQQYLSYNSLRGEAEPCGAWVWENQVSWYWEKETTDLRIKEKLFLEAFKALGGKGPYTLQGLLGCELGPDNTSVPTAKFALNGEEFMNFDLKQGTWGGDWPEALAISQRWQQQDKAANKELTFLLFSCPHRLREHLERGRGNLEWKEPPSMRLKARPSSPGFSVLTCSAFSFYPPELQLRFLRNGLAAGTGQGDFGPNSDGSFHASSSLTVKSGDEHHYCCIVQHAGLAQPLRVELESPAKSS
Chain of human neonatal Fc receptor (FcRn) (human) (P61769 21-119, chain 2 of 2, further chain): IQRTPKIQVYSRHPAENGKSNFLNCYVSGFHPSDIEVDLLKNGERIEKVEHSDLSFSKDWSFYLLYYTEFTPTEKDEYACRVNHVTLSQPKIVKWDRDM
Chain of human Fc gamma receptor IIIA, polymorphism V176 (human) (P08637 17-208 F176V): as the sequence (P08637 17-208) above, with F160V counted along it

Take CIS43 (antibody): the results for the Kd in assay [1] and in assay [2] were 54.2 nM and 326 nM, respectively.
With CIS43 human monoclonal antibody, the Kd came out at 3840 nM in assay [3]; 1030 nM in [4]; 3130 nM in [5]; 14.8 nM in assay [6]; 1740 nM in assay [7]; 1280 nM in assay [8]. For the same substance, the Kd came out at 652 nM in assay [9] and 1480 nM in assay [10]. Moreover, the koff (in general, the rate constant with which the complex falls apart) was 0.676 s⁻¹ in [3]; 0.442 s⁻¹ in assay [4]; 0.812 s⁻¹ in assay [5]; 0.00278 s⁻¹ in assay [6]; 0.273 s⁻¹ in assay [7]; 0.419 s⁻¹ in assay [8]. Besides, the koff in assay [9] was found to be 0.105 s⁻¹; in [10] it was 0.514 s⁻¹. The kon (usually a measure of how fast the partners come together) in assay [3] was 176000 M⁻¹ s⁻¹; in [4], 430000 M⁻¹ s⁻¹; in [5], 259000 M⁻¹ s⁻¹; in assay [6], 187000 M⁻¹ s⁻¹; in assay [7], 157000 M⁻¹ s⁻¹; in assay [8], 327000 M⁻¹ s⁻¹. The kon in assay [9] was 161000 M⁻¹ s⁻¹; in assay [10], 348000 M⁻¹ s⁻¹.
Turning to “CIS43LS (CIS43 with the LS mutations M451L/N457S in the CH3 domain of the Fc region) (antibody)”, the Kd in assay [3] turned out to be 2490 nM; in assay [4], 1190 nM; in assay [5], 3800 nM; in assay [6], 15.8 nM; in assay [8], 854 nM; in [9] it was 550 nM. The Kd in [10] came out at 764 nM. For the same substance, the koff in [3] is 0.598 s⁻¹; in assay [4], 0.356 s⁻¹; in [5], 0.874 s⁻¹; in assay [6] it was 0.00308 s⁻¹; in assay [8], 0.25 s⁻¹; in [9] it was 0.0433 s⁻¹. Also, the dissociation rate constant (koff) in assay [10] was determined as 0.349 s⁻¹. For the same substance, the on-rate (kon) in assay [3] was found to be 240000 M⁻¹ s⁻¹; in assay [4] it was 300000 M⁻¹ s⁻¹; in [5], 230000 M⁻¹ s⁻¹; in assay [6] it was 194000 M⁻¹ s⁻¹; in [8] it was 293000 M⁻¹ s⁻¹; in [9], 78700 M⁻¹ s⁻¹. Further, the association rate constant (kon) in assay [10] was found to be 457000 M⁻¹ s⁻¹.
As for CIS43LS (antibody), the Kd in [11] stood at 234 nM; in assay [12], 262 nM; in assay [1] it was 6.2 nM; in assay [2], 25.1 nM.

(Values after paper PMC7934869.)
